Target: hu IGF-1R(ECD)-C3-muIgG1 Fc (human; mouse)
Test: ORIGEN dose response competition on IGF-1R(ECD)-C3-muFc beads; competitor 1 nM Ru-IGF-1

Max (%), maximum level of inhibition at 1 µM antibody concentration: 91%
Substance: murine anti-IGF-1R antibody αIR3 (Calbiochem)

Source: US20150274829A1
